{
  "source": "patent US6558950",
  "about": "(MCGILL UNIVERSITY, dated 2003)",
  "binders": {"B1": {"name": "CPP32 (caspase-3) (protein)", "chain": "SGISLDNSYKMDYPEMGLCIIINNKNFHKSTGMTSRSGTDVDAANLRETFRNLKYEVRNKNDLTREEIVELMRDVSKEDHSKRSSFVCVLLSHGEEGIIFGTNGPVDLKKITNFFRGDRCRSLTGKPKLFIIQACRGTELDCGIETDSGVDDDMACHKIPVEADFLYAYSTAPGYYSWRNSKDGSWFIQSLCAMLKQYADKLEFMHILTRVNRKVATEFESFSFDATFHAKKQIPCIVSMLTKELYFYH"}, "B2": {"name": "FLICE (caspase-8) (protein)", "chain": "SESQTLDKVYQMKSKPRGYCLIINNHNFAKAREKVPKLHSIRDRNGTHLDAGALTTTFEELHFEIKPHDDCTVEQIYEILKIYQLMDHSNMDCFICCILSHGDKGIIYGTDGQEAPIYELTSQFTGLKCPSLAGKPKVFFIQACQGDNYQKGIPVETDSEEQPYLEMDLSSPQTRYIPDEADFLLGMATVNNCVSYRNPAEGTWYIQSLCQSLRERCPRGDDILTILTEVNYEVSNKDDKKNMGKQMPQPTFTLRKKLVFPSD"}, "B3": {"name": "p20 cleavage product of p28 Bap31 (other)", "chain": "MTLQWTAVATFLYAEVFVVLLLCIPFISPKRWQKIFKSRLVELLVSYGNTFFVVLIVILVLLVIDAVREIRKYDDVTEKVNLQNNPGAMEHFHMKLFRAQRNLYIAGFSLLLSFLLRRLVTLISQQATLLASNEAFKKQAESASEAAKKYMEENDQLKKGAAVD", "notes": "Endogenous product in apoptotic human KB cells, on SDS-PAGE blots; also called cleavage product \"b\""}, "B4": {"name": "GST-p28 (1-246) (other)", "chain": "MTLQWTAVATFLYAEVFVVLLLCIPFISPKRWQKIFKSRLVELLVSYGNTFFVVLIVILVLLVIDAVREIRKYDDVTEKVNLQNNPGAMEHFHMKLFRAQRNLYIAGFSLLLSFLLRRLVTLISQQATLLASNEAFKKQAESASEAAKKYMEENDQLKKGAAVDGGKLDVGNAEVKLEEENRSLKADLQKLKDELASTKQKLEKAENEVLAMRKQSEGLTKEYDRLLEEHAKLQAAVDGPMDKKEE", "notes": "Expressed in E. coli and purified on glutathione Sepharose; The thrombin-site linker of pGEX-2T is not described; also called GST-p28 Bap31; not shown: glutathione S-transferase encoded by pGEX-2T (Pharmacia)"}, "B5": {"name": "GST-p28 (1-164) (other)", "chain": "MTLQWTAVATFLYAEVFVVLLLCIPFISPKRWQKIFKSRLVELLVSYGNTFFVVLIVILVLLVIDAVREIRKYDDVTEKVNLQNNPGAMEHFHMKLFRAQRNLYIAGFSLLLSFLLRRLVTLISQQATLLASNEAFKKQAESASEAAKKYMEENDQLKKGAAVD", "notes": "Expressed in E. coli and purified on glutathione Sepharose; also called GST-p20; not shown: glutathione S-transferase encoded by pGEX-2T (Pharmacia)"}, "B6": {"name": "GST-p28 (122-164) (other)", "chain": "LISQQATLLASNEAFKKQAESASEAAKKYMEENDQLKKGAAVD", "modifications": "also: GST fusion", "notes": "Expressed in E. coli and purified on glutathione Sepharose; not shown: glutathione S-transferase encoded by pGEX-2T (Pharmacia)"}, "B7": {"name": "Flag-tagged p28 Bap31 (other)", "chain": "MTLQWTAVATFLYAEVFVVLLLCIPFISPKRWQKIFKSRLVELLVSYGNTFFVVLIVILVLLVIDAVREIRKYDDVTEKVNLQNNPGAMEHFHMKLFRAQRNLYIAGFSLLLSFLLRRLVTLISQQATLLASNEAFKKQAESASEAAKKYMEENDQLKKGAAVDGGKLDVGNAEVKLEEENRSLKADLQKLKDELASTKQKLEKAENEVLAMRKQSEGLTKEYDRLLEEHAKLQAAVDGPMDYKDDDDKAMDKKEE"}},
  "key": {"[1]": {"biological_target": "T1, 35S-labelled transcription-translation product of p28 Bap31 cDNA", "T1 chain": "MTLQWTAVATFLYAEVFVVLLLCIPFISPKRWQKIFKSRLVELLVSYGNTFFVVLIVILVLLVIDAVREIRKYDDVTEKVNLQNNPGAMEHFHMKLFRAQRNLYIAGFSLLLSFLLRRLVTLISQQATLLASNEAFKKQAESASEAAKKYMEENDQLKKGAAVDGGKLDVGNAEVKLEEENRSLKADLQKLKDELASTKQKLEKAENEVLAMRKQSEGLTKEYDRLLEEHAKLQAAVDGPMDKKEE"}, "[2]": {"biological_target": "T2, 32P-Bcl-2Δc21/his6/HMK (human, UniProt P10415 1-218, 32P-labelled with heart muscle kinase and 32P-gamma-ATP at the C-terminal HMK recognition sequence (arg-arg-ala-ser))", "T2 construct": "range 1-218; Expressed in E. coli from the pTrchis vector; a soluble mixture of monomers and dimers at pH 7.4; also called 32P-labelled Bcl-2 cytosolic domain probe", "T2 sequence (P10415 other isoform, or with tags, fused parts or gaps mutant limits assumed)": "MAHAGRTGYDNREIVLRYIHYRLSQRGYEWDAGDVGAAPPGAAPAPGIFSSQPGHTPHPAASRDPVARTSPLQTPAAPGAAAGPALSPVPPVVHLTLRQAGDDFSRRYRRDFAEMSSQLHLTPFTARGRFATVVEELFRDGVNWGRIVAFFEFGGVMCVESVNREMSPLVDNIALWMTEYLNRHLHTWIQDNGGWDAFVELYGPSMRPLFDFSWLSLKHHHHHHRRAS", "experiment": "Far Western blot of reverse phase HPLC fractions (FIG. 2B)", "method": "Aliquots of fractions eluted from the gel were assayed by ^32P-Bcl-2Δc21/his6/HMK Far Western blotting analysis, and the radioactive bands corresponding to p20 and p21 Bax were detected and quantified by Phosphorimager. The levels relative to the maximal signal detected (set at 100) were plotted as a bar graph (upper panel). […] The positions of molecular mass marker proteins are indicated. The black bars on the graph indicate p20. The white stippled bars on the graph indicate p21 Bax. Figure 2B: FIG. 2B is a reverse phase HPLC analysis ($A280$ profile; upper panel) and corresponding graph (lower panel) showing proteins eluted between 190 and 220 ml from the preparative SDS PAGE of FIG. 2A. Equal aliquots from all fractions were assayed for ^32P-Bcl-2Δc21/his6/HMK interacting protein by Far Western blotting analysis, for which only p20 was detected. Amounts relative to the maximal signal detected (set at 100) were plotted as a bar graph (lower panel). […]\nIdentification of the p20 Bcl-2-binding polypeptide was obtained by NH_2-terminal peptide sequence analysis of p20 following its isolation by a combination of differential solubilization in detergent, preparative SDS PAGE, and reverse phase HPLC (FIGS. 2A and 2B). […] One candidate sequence emerged, and was the only sequence that was detected in the peak fraction of Bcl-2 binding activity (fraction 54, FIG. 2B)."}, "[3]": {"biological_target": "T2, 32P-Bcl-2Δc21/his6/HMK", "experiment": "Far Western blot of purified GST fusion proteins"}, "[4]": {"biological_target": "T3, Bax (transfected, 293T cells) (UniProt Q07812 1-192, limits assumed)", "T3 construct": "Detected with rabbit anti-Bax sc-526; also called the pro-apoptotic member of the Bcl-2 family", "T3 sequence (Q07812 whole entry)": "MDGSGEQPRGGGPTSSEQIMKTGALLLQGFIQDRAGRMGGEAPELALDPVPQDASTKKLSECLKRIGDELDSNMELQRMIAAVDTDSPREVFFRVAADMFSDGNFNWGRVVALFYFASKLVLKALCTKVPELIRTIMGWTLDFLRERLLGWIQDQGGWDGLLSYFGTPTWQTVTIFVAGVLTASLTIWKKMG", "experiment": "anti-Flag co-immunoprecipitation, anti-Bax Western blot", "method": "After centrifugation at 11,000 g, the supernatant was incubated with 50 µl of a 1:1 slurry of protein G Sepharose for 1 hour at 4° C. The Sepharose was removed and the supernatant incubated with mouse M2 anti-Flag antibody (IBI-A Kodak Co., New Haven, Conn.) at 4° C. for 6–8 hours, at which time 20 µl of a 1:1 slurry of proteinG Sepharose was added. After 1 hour at 4° C., the beads were recovered, washed, and boiled in SDS sample buffer. Following SDS PAGE and transfer to nitrocellulose, blots were developed with either mouse anti-Myc 9E1D antibody or mouse anti-HA 12CA5 antibody (both from Babco, Berkeley, Calif.) or rabbit anti-Bax sc-526 antibody (commercially available from Santa Cruz Biotech., Inc., Santa Cruz, Calif.)."}},
  "note": "No end group written: not given here.",
  "data": [
    {"binder": "B1", "values": [
      {"measurement": "cleavage of 35S-labelled p28 Bap31 in vitro (SDS-PAGE)", "setting": "[1]", "value": "little reactivity was observed for caspase-3 over a wide range of enzyme concentration"}
    ]},
    {"binder": "B2", "values": [
      {"measurement": "p20 cleavage product quantitated on a Phosphorimager", "setting": "[1]", "value": "p28 Bap31 was more sensitive to cleavage by FLICE (caspase-8) than ICE (caspase-1)"}
    ]},
    {"binder": "B3", "values": [
      {"measurement": "binding result", "setting": "[2]", "value": "binds"}
    ]},
    {"binder": "B4", "values": [
      {"measurement": "binding result", "setting": "[3]", "value": "binds"}
    ]},
    {"binder": "B5", "values": [
      {"measurement": "binding result", "setting": "[3]", "value": "binds"}
    ]},
    {"binder": "B6", "values": [
      {"measurement": "binding result", "setting": "[3]", "value": "no binding"}
    ]},
    {"binder": "B7", "values": [
      {"measurement": "binding result", "setting": "[4]", "value": "no binding"}
    ]}
  ]
}
